Results from PMC9724675, “POPDC1 scaffolds a complex of adenylyl cyclase 9 and the potassium channel TREK‐1 in heart” (EMBO Reports, 2022).

Target: T1, POPDC1-Myc (Popeye domain-containing protein 1, Myc-tagged) (mouse, UniProt Q9ES83 1-358)
T1 construct: POPDC1 (Bves), mouse; construct described in Froese et al 2012 and Schindler et al 2016b; Mouse is stated for the BiFC constructs, which were made from the previously described tagged constructs; also called Myc-tagged POPDC1; BVES; source: HEK293 or COS-7, transfected, in cells or in lysate
T1 sequence (looked up): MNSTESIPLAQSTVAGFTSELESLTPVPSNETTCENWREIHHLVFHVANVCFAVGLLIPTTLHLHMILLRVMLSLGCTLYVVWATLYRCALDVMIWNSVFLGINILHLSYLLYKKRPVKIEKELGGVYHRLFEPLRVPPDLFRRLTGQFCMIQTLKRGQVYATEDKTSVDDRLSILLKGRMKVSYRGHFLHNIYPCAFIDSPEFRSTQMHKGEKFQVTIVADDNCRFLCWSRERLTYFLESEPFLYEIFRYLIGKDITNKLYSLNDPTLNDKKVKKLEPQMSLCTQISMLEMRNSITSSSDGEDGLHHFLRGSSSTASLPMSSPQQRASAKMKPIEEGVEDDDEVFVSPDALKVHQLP
Assay: co-IP; IP-AC assay: HEK293 lysates expressing AC1 or AC8 with or without Myc-tagged POPDC1, immunoprecipitation with anti-MYC, AC activity stimulated with 100 μM calcium and 300 nM calmodulin
Conditions: partners not purified

fold Ca2+/calmodulin-stimulated AC activity in the POPDC1 immunoprecipitate over IgG controls: 1.59 ± 0.05 fold
B1: nontagged AC1 (adenylyl cyclase 1) (enzyme)
chain: not shown
notes: adenylyl cyclase 1 (AC1), Ca2+/calmodulin-stimulated; the plasmid is not described; source: HEK293, transfected, in lysate
